# Patent US20240052038A1 (IMMUNOBRAIN CHECKPOINT, published 2024)
# How the values were obtained:
# [1] = target: T1, cynomolgus monkey PD-L1 on blood T lymphocytes (cynomolgus monkey, UniProt G7PSE7 19-290); assay: receptor occupancy on blood T lymphocytes by flow cytometry, cynomolgus monkeys, up to day 12 after 13 mg/kg IV
# T1 construct: also called PD-L1 receptor (cynomolgus T cells)
# Procedure: (§1) Blood (8 mL) for PBMC isolation was collected at least one day prior to dose and 5, 14, 21 and 30-days post-injection. […] All collected blood and serum samples were frozen for subsequent analysis. […] These antibodies came from a different expression system using transfected HEK cells. Blood (8 mL) for PBMC isolation was collected at least one day prior to dose and 5, 14, 21, 30 and 45-days post-injection. […] All collected blood and serum samples were frozen for subsequent analysis.
# (§2) One day prior to dosing (baseline), and on 5, 14, 21, and 30-days post treatment, 8 mL of whole blood was collected for Peripheral Blood Mononuclear Cell (PBMC) isolation and cryopreservation. In the second study, whole blood was also collected also at 45-days post treatment. Samples were analyzed for PD-L1 receptor occupancy on blood T lymphocytes and for Immunophenotype of different immune cell subpopulations. The percentage of PD-L1 receptor occupancy on blood T-lymphocytes by the antibody was assessed using the same method as described above for receptor occupancy in mice.
# [2] = target: T1, cynomolgus monkey PD-L1 on blood T …; assay: receptor occupancy on blood T lymphocytes by flow cytometry, cynomolgus monkeys, day 20 after 13 mg/kg IV (antibody cleared)
# Procedure: as §1, §2
# [3] = target: T2, human PD-L1 (human, UniProt Q9NZQ7 19-238, limits assumed); assay: SPR, kinetics
# T2 construct: also called hPD-L1; Programmed Death-Ligand 1
# T2 sequence (Q9NZQ7 19-238 limits assumed): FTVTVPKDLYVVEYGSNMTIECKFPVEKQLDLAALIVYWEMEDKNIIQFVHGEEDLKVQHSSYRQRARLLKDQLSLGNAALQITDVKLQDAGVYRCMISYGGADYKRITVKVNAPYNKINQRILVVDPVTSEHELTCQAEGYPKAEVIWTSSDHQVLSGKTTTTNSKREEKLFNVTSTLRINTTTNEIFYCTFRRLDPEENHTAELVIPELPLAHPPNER
# [4] = target: T2, human PD-L1; assay: SPR
# [5] = target: cynomolgus monkey PD-L1 (cynomolgus monkey, UniProt G7PSE7 19-238); assay: SPR
# Sequence of cynomolgus monkey PD-L1 (G7PSE7 entry or part of it limits assumed): as the sequence (Q9NZQ7 19-238 limits assumed) above, with A33T, A34S, S62N, R68Q, Q82R, F173L, T185A, T192I, H215L counted along it
# T1 sequence (G7PSE7 entry or part of it limits assumed): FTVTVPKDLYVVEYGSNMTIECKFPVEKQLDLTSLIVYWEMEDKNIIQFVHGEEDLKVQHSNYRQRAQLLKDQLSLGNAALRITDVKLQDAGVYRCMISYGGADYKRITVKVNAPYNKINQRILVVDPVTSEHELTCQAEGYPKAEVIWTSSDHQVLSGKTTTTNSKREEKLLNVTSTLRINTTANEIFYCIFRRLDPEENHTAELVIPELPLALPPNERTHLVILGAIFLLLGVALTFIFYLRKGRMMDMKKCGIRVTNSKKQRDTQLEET
Binder,receptor occupancy [1],receptor occupancy [2],Kd [3],Kd [4],Kd [5]
"Variant 1-G09 (Fc effector null) (antibody, human IgG1, kappa, L234A L235A, Human IgG1 with L239A, L240A, K327A; kappa light chain; also called null mutant) heavy: EVQLVESGGGLVQPGRSLRLSCAASGFTFDDYAMHWVRQTPGKGLEWVSGISWKSNIIGYADSVKGRFTISRDNAKNSLYLQMNSLRAEDTALYYCARDITGSGSYGWFDPWGQGTLVTVSSASTKGPSVFPLAPSSKSTSGGTAALGCLVKDYFPEPVTVSWNSGALTSGVHTFPAVLQSSGLYSLSSVVTVPSSSLGTQTYICNVNHKPSNTKVDKRVEPKSCDKTHTCPPCPAPEAAGGPSVFLFPPKPKDTLMISRTPEVTCVVVDVSHEDPEVKFNWYVDGVEVHNAKTKPREEQYNSTYRVVSVLTVLHQDWLNGKEYKCAVSNKALPAPIEKTISKAKGQPREPQVYTLPPSREEMTKNQVSLTCLVKGFYPSDIAVEWESNGQPENNYKTTPPVLDSDGSFFLYSKLTVDKSRWQQGNVFSCSVMHEALHNHYTQKSLSLSPG light: DIQMTQSPSSLSASVGDRVTITCRASQSISSYLNWYQQKPGKAPKPLIYVASSLQSGVPSSFSGSGSGTDFTLTISSLQPEDFATYYCQQSYSNPITFGQGTRLEIKRTVAAPSVFIFPPSDEQLKSGTASVVCLLNNFYPREAKVQWKVDNALQSGNSQESVTEQDSKDSTYSLSSTLTLSKADYEKHKVYACEVTHQGLSSPVTKSFNRGEC",> 80%,–,–,–,–
"Variant 2-G09 (Fc effector null-H315A) (antibody, human IgG1, kappa, L234A L235A, Human IgG1 with L239A, L240A, K327A and H315A; kappa light chain) heavy: EVQLVESGGGLVQPGRSLRLSCAASGFTFDDYAMHWVRQTPGKGLEWVSGISWKSNIIGYADSVKGRFTISRDNAKNSLYLQMNSLRAEDTALYYCARDITGSGSYGWFDPWGQGTLVTVSSASTKGPSVFPLAPSSKSTSGGTAALGCLVKDYFPEPVTVSWNSGALTSGVHTFPAVLQSSGLYSLSSVVTVPSSSLGTQTYICNVNHKPSNTKVDKRVEPKSCDKTHTCPPCPAPEAAGGPSVFLFPPKPKDTLMISRTPEVTCVVVDVSHEDPEVKFNWYVDGVEVHNAKTKPREEQYNSTYRVVSVLTVLAQDWLNGKEYKCAVSNKALPAPIEKTISKAKGQPREPQVYTLPPSREEMTKNQVSLTCLVKGFYPSDIAVEWESNGQPENNYKTTPPVLDSDGSFFLYSKLTVDKSRWQQGNVFSCSVMHEALHNHYTQKSLSLSPG light: DIQMTQSPSSLSASVGDRVTITCRASQSISSYLNWYQQKPGKAPKPLIYVASSLQSGVPSSFSGSGSGTDFTLTISSLQPEDFATYYCQQSYSNPITFGQGTRLEIKRTVAAPSVFIFPPSDEQLKSGTASVVCLLNNFYPREAKVQWKVDNALQSGNSQESVTEQDSKDSTYSLSSTLTLSKADYEKHKVYACEVTHQGLSSPVTKSFNRGEC",> 80%,< 20%,–,–,–
"Variant 3-G09 (Fc effector null-H440Q) (antibody, human IgG1, kappa, L234A L235A, Human IgG1 with L239A, L240A, K327A and H440Q; kappa light chain) heavy: EVQLVESGGGLVQPGRSLRLSCAASGFTFDDYAMHWVRQTPGKGLEWVSGISWKSNIIGYADSVKGRFTISRDNAKNSLYLQMNSLRAEDTALYYCARDITGSGSYGWFDPWGQGTLVTVSSASTKGPSVFPLAPSSKSTSGGTAALGCLVKDYFPEPVTVSWNSGALTSGVHTFPAVLQSSGLYSLSSVVTVPSSSLGTQTYICNVNHKPSNTKVDKRVEPKSCDKTHTCPPCPAPEAAGGPSVFLFPPKPKDTLMISRTPEVTCVVVDVSHEDPEVKFNWYVDGVEVHNAKTKPREEQYNSTYRVVSVLTVLHQDWLNGKEYKCAVSNKALPAPIEKTISKAKGQPREPQVYTLPPSREEMTKNQVSLTCLVKGFYPSDIAVEWESNGQPENNYKTTPPVLDSDGSFFLYSKLTVDKSRWQQGNVFSCSVMHEALHNQYTQKSLSLSPG light: DIQMTQSPSSLSASVGDRVTITCRASQSISSYLNWYQQKPGKAPKPLIYVASSLQSGVPSSFSGSGSGTDFTLTISSLQPEDFATYYCQQSYSNPITFGQGTRLEIKRTVAAPSVFIFPPSDEQLKSGTASVVCLLNNFYPREAKVQWKVDNALQSGNSQESVTEQDSKDSTYSLSSTLTLSKADYEKHKVYACEVTHQGLSSPVTKSFNRGEC",> 80%,< 20%,–,–,–
"Variant 4-G09 (Fc effector null-H315A + H440Q) (antibody, human IgG1, kappa, L234A L235A, Human IgG1 with L239A, L240A, K327A, H315A and H440Q; kappa light chain; also called double mutant) heavy: EVQLVESGGGLVQPGRSLRLSCAASGFTFDDYAMHWVRQTPGKGLEWVSGISWKSNIIGYADSVKGRFTISRDNAKNSLYLQMNSLRAEDTALYYCARDITGSGSYGWFDPWGQGTLVTVSSASTKGPSVFPLAPSSKSTSGGTAALGCLVKDYFPEPVTVSWNSGALTSGVHTFPAVLQSSGLYSLSSVVTVPSSSLGTQTYICNVNHKPSNTKVDKRVEPKSCDKTHTCPPCPAPEAAGGPSVFLFPPKPKDTLMISRTPEVTCVVVDVSHEDPEVKFNWYVDGVEVHNAKTKPREEQYNSTYRVVSVLTVLAQDWLNGKEYKCAVSNKALPAPIEKTISKAKGQPREPQVYTLPPSREEMTKNQVSLTCLVKGFYPSDIAVEWESNGQPENNYKTTPPVLDSDGSFFLYSKLTVDKSRWQQGNVFSCSVMHEALHNQYTQKSLSLSPG light: DIQMTQSPSSLSASVGDRVTITCRASQSISSYLNWYQQKPGKAPKPLIYVASSLQSGVPSSFSGSGSGTDFTLTISSLQPEDFATYYCQQSYSNPITFGQGTRLEIKRTVAAPSVFIFPPSDEQLKSGTASVVCLLNNFYPREAKVQWKVDNALQSGNSQESVTEQDSKDSTYSLSSTLTLSKADYEKHKVYACEVTHQGLSSPVTKSFNRGEC",–,< 20%,–,–,–
"human anti-PD-L1 monoclonal antibody 84G09 (antibody, V domains shown, also called anti-human PD-L1 antibody (clone 84G09)) VH: EVQLVESGGGLVQPGRSLRLSCAASGFTFDDYAMHWVRQTPGKGLEWVSGISWKSNIIGYADSVKGRFTISRDNAKNSLYLQMNSLRAEDTALYYCARDITGSGSYGWFDPWGQGTLVTVSS VL: DIQMTQSPSSLSASVGDRVTITCRASQSISSYLNWYQQKPGKAPKPLIYVASSLQSGVPSSFSGSGSGTDFTLTISSLQPEDFATYYCQQSYSNPITFGQGTRLEIK",–,–,0.4 nM,0.43 nM,0.52 nM
